B1: S009-F4-94.15 (antibody, human IgG1, kappa, V domains shown)
VH: QVQLHQPGAELVRPGSSVKLSCKASGYTFTSYWVHWVQQRPRQGLEWIGNIDPSDSEIHYNQKFKDKATLTVDKSSSTAYIHLSRLTSEDSAIYYCVRGGVPWFAYWGQGTLVTVSA
VL: QIVLTQSPAIMSASPGEKVTLTCSASSSVSSTYLYWFQQKPGSSPKVWIYSTSNLASGVPARFSGSGSGTSYSLTISSMEAEDAASYFCHQWISYPYTFGGGTKLEIKR
notes: Human-murine chimeric antibody, human IgG1/kappa constant regions
B2: S009-F4-94.15 chimeric antibody (antibody, human IgG1, kappa, V domains shown)
VH: B1 VH
VL: B1 VL
notes: Human-murine chimeric antibody: murine VH/VL on human IgG1 heavy and kappa light constant regions
B3: S009-F4-127.10 (antibody, human IgG1, kappa, V domains shown)
VH: EVQLQQSGPVLVKPGASVKMSCKASGYTFTDYYMNWVKQSHGKSPEWIGVINPYNDVISYNQKFKGKATLTVDKSSSTAYMELNSLTSEDSAVYYCANYGSSYYAMDYWGQGTSVTVSS
VL: DVVMTQTPLSLSVSLGDQASISCRSSQSLVHSNGNTYLQWSLQKPGQSPNLLIYKVSNRFSGVPDRFSGSGSGTDFTLKISRVEAEDLGVYFCSQTTHVPFTFGGGTKLEIRR
notes: as for B1
B4: S009-F4-127.10 chimeric antibody (antibody, human IgG1, kappa, V domains shown)
VH: B3 VH
VL: B3 VL
notes: as for B1
B5: S009-F6-76.1 chimeric antibody (antibody, human IgG1, kappa, V domains shown)
VH: QVQLQQSGPELVKPGASVKISCKASGYTFTDYYINWVKQRPGQGLEWIGWIFPGRGSTFYYEKFKGKATLTVDKSSSTAYMLLSSLTSEDSAVYFCARRGDSAGYEDLDYWGQGTSVTVSS
VL: NIVMTQSPKFMSMSVGERVTLSCKASENVVTYVSWYQQKPKQSPKLLIYGASKRYTGVPDRFTGSGSATDFTLTISSVQAEDLGDYHCGQSYSYPYTFGGGTKLEIKR
notes: as for B1
B6: S009-F5-9.16 chimeric antibody (antibody, human IgG1, kappa, V domains shown)
VH: EVQLRQSGPVLVKPGASVKMSCKASGYTFTDYFMNWVKPSHGKSLEWIGVINPSNGVINYNQRFKGKATLTVDKSSSTAYMELNSLTSEDSAVYYCARSYDFAWFAYWGQGTLVTVSA
VL: DVLMTQTPLSLPVSLGDQASISCRSSQNIVHSNGNTYLEWYLQKPGQSPKLLIYTVSNRFSGVPDRFSGSGSGTDFTLKISRVEAEDLGVYYCFQGSHVPYTFGGGTKLEIKR
notes: as for B1

Columns and labels:
[1] = molecular target: T1, human MSLN-FL-his protein (human, UniProt Q13421 296-580); assay: ELISA, coated antigen; antibody 1 nM
T1 construct: also called human MSLN full-length protein; hMSLN-FL-his; not shown: His tag
T1 sequence (Q13421 other isoform, or with tags, fused parts or gaps): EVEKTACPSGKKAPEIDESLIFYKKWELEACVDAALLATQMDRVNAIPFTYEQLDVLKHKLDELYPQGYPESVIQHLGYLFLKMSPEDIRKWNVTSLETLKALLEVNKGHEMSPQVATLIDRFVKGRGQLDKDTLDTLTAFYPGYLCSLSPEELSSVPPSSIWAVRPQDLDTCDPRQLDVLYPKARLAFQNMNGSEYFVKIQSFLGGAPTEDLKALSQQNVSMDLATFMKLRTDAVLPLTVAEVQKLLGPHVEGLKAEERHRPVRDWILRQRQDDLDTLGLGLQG

[2] = molecular target: T2, human MSLN-R1-his protein (human, UniProt Q13421 296-390); assay: ELISA, coated antigen; antibody 1 nM
T2 construct: also called human MSLN-R1 protein; hMSLN-R1-his; not shown: His tag
T2 sequence (Q13421 other isoform, or with tags, fused parts or gaps): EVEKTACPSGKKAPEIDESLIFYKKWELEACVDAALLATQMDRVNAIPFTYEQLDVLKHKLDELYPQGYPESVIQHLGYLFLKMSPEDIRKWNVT

[3] = molecular target: T3, human MSLN-R2-his protein (human, UniProt Q13421 391-486); assay: ELISA, coated antigen; antibody 1 nM
T3 construct: also called human MSLN-R2 protein; hMSLN-R2-his; not shown: His tag
T3 sequence (Q13421 other isoform, or with tags, fused parts or gaps): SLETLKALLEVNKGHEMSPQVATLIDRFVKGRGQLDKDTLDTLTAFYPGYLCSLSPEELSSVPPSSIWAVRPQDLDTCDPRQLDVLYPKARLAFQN

[4] = molecular target: T1, human MSLN-FL-his protein; assay: ELISA, coated antigen; antibody 10 nM
Procedure: (§1) The plate was sealed with a plastic film and incubated at 4° C. overnight. The next day, the plate was washed twice with PBST, and a blocking buffer [PBS+2% (w/w) BSA] was added for blocking at room temperature for 2 h. The blocking buffer was discarded, and a chimeric antibody or negative control antibody serially diluted from 100 nM was added at 50 μL/well. After incubation at 37° C. for 2 h, the plate was washed 3 times with PBST. […] After incubation at 37° C. for 2 h, the plate was washed 5 times with PBST. A TMB substrate was added at 50 μL/well for incubation at room temperature for 5-10 min, and then a stop solution (1.0 N HCl) was added at 50 μL/well.

[5] = molecular target: T2, human MSLN-R1-his protein; assay: ELISA, coated antigen; antibody 10 nM
Procedure: as §1

[6] = molecular target: T3, human MSLN-R2-his protein; assay: ELISA, coated antigen; antibody 10 nM
Procedure: as §1

[7] = molecular target: T1, human MSLN-FL-his protein; assay: ELISA, coated antigen; antibody 0.1 nM
Procedure: as §1

[8] = molecular target: T1, human MSLN-FL-his protein; assay: ELISA, coated antigen; antibody 100 nM
Procedure: as §1

[9] = molecular target: T2, human MSLN-R1-his protein; assay: ELISA, coated antigen; antibody 0.1 nM
Procedure: as §1

[10] = molecular target: T2, human MSLN-R1-his protein; assay: ELISA, coated antigen; antibody 100 nM
Procedure: as §1

[11] = molecular target: T3, human MSLN-R2-his protein; assay: ELISA, coated antigen; antibody 0.1 nM
Procedure: as §1

[12] = molecular target: T3, human MSLN-R2-his protein; assay: ELISA, coated antigen; antibody 100 nM
Procedure: as §1

[13] = molecular target: T1, human MSLN-FL-his protein; assay: ELISA, coated antigen; antibody 0.01 nM
Procedure: as §1

[14] = molecular target: T2, human MSLN-R1-his protein; assay: ELISA, coated antigen; antibody 0.01 nM
Procedure: as §1

[15] = molecular target: T3, human MSLN-R2-his protein; assay: ELISA, coated antigen; antibody 0.01 nM
Procedure: as §1

[16] = molecular target: T1, human MSLN-FL-his protein; assay: ELISA, coated antigen; antibody 0.001 nM
Procedure: as §1

[17] = molecular target: T2, human MSLN-R1-his protein; assay: ELISA, coated antigen; antibody 0.001 nM
Procedure: as §1

[18] = molecular target: T3, human MSLN-R2-his protein; assay: ELISA, coated antigen; antibody 0.001 nM
Procedure: as §1

[19] = molecular target: T1, human MSLN-FL-his protein; assay: ELISA, coated antigen; antibody 0.0001 nM
Procedure: as §1

[20] = molecular target: T2, human MSLN-R1-his protein; assay: ELISA, coated antigen; antibody 0.0001 nM
Procedure: as §1

[21] = molecular target: T3, human MSLN-R2-his protein; assay: ELISA, coated antigen; antibody 0.0001 nM
Procedure: as §1

[22] = molecular target: T1, human MSLN-FL-his protein; assay: ELISA, coated antigen; no antibody (blank, column 'none')
Procedure: as §1

[23] = molecular target: T2, human MSLN-R1-his protein; assay: as above
Procedure: as §1

[24] = molecular target: T3, human MSLN-R2-his protein; assay: as above
Procedure: as §1

[25] = molecular target: T4, human MSLN-R3-his protein (human, UniProt Q13421 487-598); assay: ELISA, coated antigen, antibody 1 nM
T4 construct: Made in HEK293E cells, purified on nickel column; also called hMSLN-R3-his; human MSLN-R3 protein; not shown: His tag
T4 sequence (Q13421 495-606): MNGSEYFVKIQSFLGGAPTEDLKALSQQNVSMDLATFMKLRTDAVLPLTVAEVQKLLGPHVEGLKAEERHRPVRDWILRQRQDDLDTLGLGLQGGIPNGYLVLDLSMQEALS

[26] = molecular target: T5, human MSLN-R3-3 polypeptide (human); assay: ELISA, coated antigen, antibody 1 nM
T5 construct: Part of region R3 of human MSLN; also called hMSLN-R3-3; human MSLN-R3-3 protein
Procedure: as §1

[27] = molecular target: T4, human MSLN-R3-his protein; assay: ELISA, coated antigen, antibody 10 nM
Procedure: as §1

[28] = molecular target: T5, human MSLN-R3-3 polypeptide; assay: ELISA, coated antigen, antibody 10 nM
Procedure: as §1

[29] = molecular target: T4, human MSLN-R3-his protein; assay: ELISA, coated antigen, antibody 0.1 nM
Procedure: as §1

[30] = molecular target: T4, human MSLN-R3-his protein; assay: ELISA, coated antigen, antibody 100 nM
Procedure: as §1

[31] = molecular target: T5, human MSLN-R3-3 polypeptide; assay: ELISA, coated antigen, antibody 0.1 nM
Procedure: as §1

[32] = molecular target: T5, human MSLN-R3-3 polypeptide; assay: ELISA, coated antigen, antibody 100 nM
Procedure: as §1

[33] = molecular target: T4, human MSLN-R3-his protein; assay: ELISA, coated antigen, antibody 0.01 nM
Procedure: as §1

[34] = molecular target: T5, human MSLN-R3-3 polypeptide; assay: ELISA, coated antigen, antibody 0.01 nM
Procedure: as §1

[35] = molecular target: T4, human MSLN-R3-his protein; assay: ELISA, coated antigen, antibody 0.001 nM
Procedure: as §1

[36] = molecular target: T5, human MSLN-R3-3 polypeptide; assay: ELISA, coated antigen, antibody 0.001 nM
Procedure: as §1

[37] = molecular target: T4, human MSLN-R3-his protein; assay: ELISA, coated antigen, antibody 0.0001 nM
[38] = molecular target: T5, human MSLN-R3-3 polypeptide; assay: ELISA, coated antigen, antibody 0.0001 nM
Procedure: as §1

[39] = molecular target: T4, human MSLN-R3-his protein; assay: ELISA, coated antigen, no antibody (blank)
Procedure: as §1

[40] = molecular target: T5, human MSLN-R3-3 polypeptide; assay: ELISA, coated antigen, no antibody (blank)

| Binder | OD450 [1] | OD450 [2] | OD450 [3] | OD450 [4] | OD450 [25] | OD450 [26] | OD450 [27] | OD450 [28] | OD450 [29] | OD450 [30] | OD450 [31] | OD450 [32] | OD450 [33] | OD450 [34] | OD450 [35] | OD450 [36] | OD450 [37] | OD450 [38] | OD450 [39] | OD450 [40] | other results |
| --- | --- | --- | --- | --- | --- | --- | --- | --- | --- | --- | --- | --- | --- | --- | --- | --- | --- | --- | --- | --- | --- |
| B1 | 1.79 OD450 | 0.05 OD450 | 0.05 OD450 | 1.84 OD450 |  |  |  |  |  |  |  |  |  |  |  |  |  |  |  |  | OD450 [5]: 0.06 OD450; OD450 [6]: 0.06 OD450; OD450 [7]: 1.57 OD450; OD450 [8]: 1.9 OD450; OD450 [9]: 0.05 OD450; OD450 [10]: 0.07 OD450; OD450 [11]: 0.05 OD450; OD450 [12]: 0.07 OD450; OD450 [13]: 0.57 OD450; OD450 [14]: 0.05 OD450; OD450 [15]: 0.05 OD450; OD450 [16]: 0.13 OD450; OD450 [17]: 0.05 OD450; OD450 [18]: 0.05 OD450; OD450 [19]: 0.06 OD450; OD450 [20]: 0.05 OD450; OD450 [21]: 0.06 OD450; OD450 [22]: 0.06 OD450; OD450 [23]: 0.07 OD450; OD450 [24]: 0.07 OD450 |
| B2 |  |  |  |  | 0.11 | 0.05 | 0.07 | 0.06 | 0.17 | 0.1 | 0.05 | 0.09 | 0.07 | 0.05 | 0.05 | 0.05 | 0.05 | 0.06 | 0.07 | 0.07 |  |
| B3 | 0.06 OD450 | 0.05 OD450 | 0.05 OD450 | 0.09 OD450 |  |  |  |  |  |  |  |  |  |  |  |  |  |  |  |  | OD450 [5]: 0.06 OD450; OD450 [6]: 0.06 OD450; OD450 [7]: 0.06 OD450; OD450 [8]: 0.21 OD450; OD450 [9]: 0.05 OD450; OD450 [10]: 0.08 OD450; OD450 [11]: 0.05 OD450; OD450 [12]: 0.09 OD450; OD450 [13]: 0.06 OD450; OD450 [14]: 0.05 OD450; OD450 [15]: 0.05 OD450; OD450 [16]: 0.06 OD450; OD450 [17]: 0.05 OD450; OD450 [18]: 0.05 OD450; OD450 [19]: 0.06 OD450; OD450 [20]: 0.05 OD450; OD450 [21]: 0.06 OD450; OD450 [22]: 0.06 OD450; OD450 [23]: 0.06 OD450; OD450 [24]: 0.06 OD450 |
| B4 |  |  |  |  | 1.82 | 0.05 | 1.93 | 0.06 | 1.31 | 2.1 | 0.05 | 0.14 | 0.41 | 0.05 | 0.09 | 0.05 | 0.06 | 0.06 | 0.07 | 0.07 |  |
| B5 |  |  |  |  | 0.04 | 0.04 | 0.05 | 0.04 | 0.04 | 0.08 | 0.05 | 0.07 | 0.04 | 0.05 | 0.05 | 0.04 | 0.04 | 0.05 | 0.05 | 0.04 |  |
| B6 |  |  |  |  | 2.32 | 0.13 | 2.36 | 0.67 | 1.82 | 2.28 | 0.05 | 1.99 | 1.11 | 0.04 | 0.26 | 0.04 | 0.12 | 0.05 | 0.05 | 0.05 |  |

From US20250250357A1 (NANJING ZAIMING PHARMACEUTICAL, published 2025)
